Laboratory results published in article PMC8813930, “The toposiomerase IIIalpha-RMI1-RMI2 complex orients human Bloom’s syndrome helicase for efficient disruption of D-loops”.

Experiments:
BLM-dH [1] = target: T1, BLM-dH (Homo sapiens, UniProt P54132 642-1191); test: fluorescence anisotropy; no ATP; 5 mM MgCl2; 50 mM Tris-HCl pH 7.5, 50 mM NaCl, 1 mM DTT, 5 mM MgCl2, 50 µg/mL BSA, 25 °C; 10 nM labeled DNA in direct titrations; settings: protein: recombinant; label: 3'-fluorescein; single strand
BLMFL [2] = target: T2, BLMFL (Homo sapiens, UniProt P54132 1-1417); test: as above; settings: protein: recombinant; label: 3'-fluorescein; single strand
BLMCR [3] = target: T3, BLMCR (Homo sapiens, UniProt P54132 642-1290); test: as above; settings: protein: recombinant; label: 3'-fluorescein; single strand
BLM-dWH [4] = target: T4, BLM-dWH (Homo sapiens, UniProt P54132 642-1077); test: as above; settings: protein: recombinant; label: 3'-fluorescein; single strand
BLM-dH [5] = target: T1, BLM-dH; test: competition fluorescence anisotropy; vs ss54-FLU; 5 mM MgCl2; 50 mM Tris-HCl pH 7.5, 50 mM NaCl, 1 mM DTT, 5 mM MgCl2, 50 µg/mL BSA, 25 °C; 10 nM labeled DNA in direct titrations; settings: protein: recombinant, label: 5'-Cy3 on D3
BLMFL [6] = target: T2, BLMFL; test: as above; settings: protein: recombinant, label: 5'-Cy3 on D3
BLMCR [7] = target: T3, BLMCR; test: as above; settings: protein: recombinant, label: 5'-Cy3 on D3
BLM-dWH [8] = target: T4, BLM-dWH; test: as above; settings: protein: recombinant, label: 5'-Cy3 on D3
[9] = target: TOPOIIIalpha (TRR complex);RMI1 (TRR complex);RMI2 (TRR complex) (Homo sapiens;Homo sapiens;Homo sapiens, UniProt Q13472;Q9H9A7;Q96E14 1-1001;1-625;1-147, ||); test: fluorescence anisotropy; 5 mM MgCl2; 50 mM Tris-HCl pH 7.5, 50 mM NaCl, 1 mM DTT, 5 mM MgCl2, 50 µg/mL BSA, 25 °C; 10 nM labeled DNA in direct titrations; settings: protein: recombinant;recombinant;recombinant, tags: His;;, copies: 1;1;1, label: fluorescein on D3 (in place of Cy3)
[10] = three-stranded D-loop-like structure (D1+D2+D3), D3 3' part invades and pairs with D1
[11] = four-stranded D-loop-like structure (D1+D2+D3+D4), D3 3' part pairs with D1, 5' part with D4
[12] = 20 bp duplex, 3' overhang 21 nt on D3

T1 sequence (P54132 642-1191): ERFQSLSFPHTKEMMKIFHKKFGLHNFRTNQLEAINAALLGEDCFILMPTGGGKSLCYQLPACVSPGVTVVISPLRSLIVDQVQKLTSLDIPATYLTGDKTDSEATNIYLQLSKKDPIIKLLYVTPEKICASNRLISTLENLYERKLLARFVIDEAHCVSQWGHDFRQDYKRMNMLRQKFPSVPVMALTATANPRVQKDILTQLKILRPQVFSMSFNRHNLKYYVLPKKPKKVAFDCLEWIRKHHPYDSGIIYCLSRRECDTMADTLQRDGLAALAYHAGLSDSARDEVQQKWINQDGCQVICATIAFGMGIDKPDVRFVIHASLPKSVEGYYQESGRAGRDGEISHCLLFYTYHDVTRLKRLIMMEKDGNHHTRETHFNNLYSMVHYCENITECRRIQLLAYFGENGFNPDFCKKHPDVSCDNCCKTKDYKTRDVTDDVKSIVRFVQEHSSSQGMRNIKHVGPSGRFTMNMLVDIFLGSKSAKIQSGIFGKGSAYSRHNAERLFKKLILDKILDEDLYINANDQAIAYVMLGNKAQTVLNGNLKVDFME
T2 sequence (P54132 whole entry): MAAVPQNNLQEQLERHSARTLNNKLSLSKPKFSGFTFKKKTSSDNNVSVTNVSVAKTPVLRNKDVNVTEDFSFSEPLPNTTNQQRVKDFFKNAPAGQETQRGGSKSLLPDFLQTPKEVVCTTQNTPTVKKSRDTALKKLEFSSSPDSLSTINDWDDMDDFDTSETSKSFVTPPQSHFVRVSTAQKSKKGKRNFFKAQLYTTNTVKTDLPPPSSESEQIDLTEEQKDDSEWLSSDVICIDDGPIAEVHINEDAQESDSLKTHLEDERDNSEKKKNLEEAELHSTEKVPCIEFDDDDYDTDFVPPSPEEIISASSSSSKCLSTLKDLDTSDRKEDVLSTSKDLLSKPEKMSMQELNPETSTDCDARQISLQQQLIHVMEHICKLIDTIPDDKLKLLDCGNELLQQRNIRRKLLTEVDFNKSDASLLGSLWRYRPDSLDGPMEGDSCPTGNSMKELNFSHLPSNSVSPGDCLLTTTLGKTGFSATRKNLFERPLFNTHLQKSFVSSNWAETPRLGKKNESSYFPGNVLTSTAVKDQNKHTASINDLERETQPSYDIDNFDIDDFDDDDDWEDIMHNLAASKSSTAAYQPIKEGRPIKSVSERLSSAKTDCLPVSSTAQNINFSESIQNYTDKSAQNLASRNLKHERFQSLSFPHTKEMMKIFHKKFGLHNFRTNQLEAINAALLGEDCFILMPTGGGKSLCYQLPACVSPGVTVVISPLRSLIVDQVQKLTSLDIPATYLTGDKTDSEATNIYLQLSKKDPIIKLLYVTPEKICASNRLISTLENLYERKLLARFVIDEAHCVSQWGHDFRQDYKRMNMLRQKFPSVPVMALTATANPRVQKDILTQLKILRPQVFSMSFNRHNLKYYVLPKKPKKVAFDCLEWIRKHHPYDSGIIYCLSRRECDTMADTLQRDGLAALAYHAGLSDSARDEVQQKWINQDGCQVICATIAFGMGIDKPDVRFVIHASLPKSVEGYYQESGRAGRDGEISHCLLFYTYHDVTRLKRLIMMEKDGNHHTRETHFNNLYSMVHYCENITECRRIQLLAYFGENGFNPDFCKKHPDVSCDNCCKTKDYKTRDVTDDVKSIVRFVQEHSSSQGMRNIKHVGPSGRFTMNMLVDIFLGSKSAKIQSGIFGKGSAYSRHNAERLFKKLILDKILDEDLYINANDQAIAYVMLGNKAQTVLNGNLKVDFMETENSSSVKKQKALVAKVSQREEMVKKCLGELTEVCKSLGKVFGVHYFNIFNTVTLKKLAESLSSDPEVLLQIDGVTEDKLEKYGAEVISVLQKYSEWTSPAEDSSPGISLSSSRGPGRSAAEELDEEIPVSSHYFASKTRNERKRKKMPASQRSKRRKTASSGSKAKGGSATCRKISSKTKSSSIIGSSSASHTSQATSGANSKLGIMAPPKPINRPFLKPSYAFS
T3 sequence (P54132 642-1290): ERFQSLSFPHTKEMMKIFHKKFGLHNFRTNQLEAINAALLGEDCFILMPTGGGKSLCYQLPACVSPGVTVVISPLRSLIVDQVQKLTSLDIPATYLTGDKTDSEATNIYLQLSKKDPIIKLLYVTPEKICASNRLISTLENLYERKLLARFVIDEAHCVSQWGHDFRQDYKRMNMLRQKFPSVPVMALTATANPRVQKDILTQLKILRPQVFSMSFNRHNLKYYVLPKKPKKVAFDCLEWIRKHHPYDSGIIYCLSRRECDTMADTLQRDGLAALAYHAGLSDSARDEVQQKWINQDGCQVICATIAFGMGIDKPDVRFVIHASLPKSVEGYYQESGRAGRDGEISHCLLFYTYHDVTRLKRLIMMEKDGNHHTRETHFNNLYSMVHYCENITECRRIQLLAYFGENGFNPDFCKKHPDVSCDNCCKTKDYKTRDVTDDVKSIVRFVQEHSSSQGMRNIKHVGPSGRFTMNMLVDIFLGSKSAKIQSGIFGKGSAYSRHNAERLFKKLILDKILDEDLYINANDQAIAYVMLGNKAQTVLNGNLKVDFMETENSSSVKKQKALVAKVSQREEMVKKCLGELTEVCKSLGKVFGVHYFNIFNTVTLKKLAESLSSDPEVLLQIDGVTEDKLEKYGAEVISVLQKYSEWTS
T4 sequence (P54132 642-1077): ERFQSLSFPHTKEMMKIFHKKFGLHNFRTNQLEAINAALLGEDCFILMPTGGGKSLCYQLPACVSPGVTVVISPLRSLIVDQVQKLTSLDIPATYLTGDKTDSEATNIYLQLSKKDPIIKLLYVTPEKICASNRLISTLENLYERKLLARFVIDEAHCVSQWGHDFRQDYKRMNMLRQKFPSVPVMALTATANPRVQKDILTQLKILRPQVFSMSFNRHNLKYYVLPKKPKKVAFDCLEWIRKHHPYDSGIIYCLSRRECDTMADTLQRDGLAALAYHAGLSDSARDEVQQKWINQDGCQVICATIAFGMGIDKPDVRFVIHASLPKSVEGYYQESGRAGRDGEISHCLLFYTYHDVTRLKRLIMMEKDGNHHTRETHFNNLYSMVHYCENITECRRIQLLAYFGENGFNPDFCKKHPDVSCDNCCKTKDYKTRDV
Sequence of TOPOIIIalpha (TRR complex);RMI1 (TRR complex);RMI2 (TRR complex) (Q13472 whole entry, chain 1 of 3): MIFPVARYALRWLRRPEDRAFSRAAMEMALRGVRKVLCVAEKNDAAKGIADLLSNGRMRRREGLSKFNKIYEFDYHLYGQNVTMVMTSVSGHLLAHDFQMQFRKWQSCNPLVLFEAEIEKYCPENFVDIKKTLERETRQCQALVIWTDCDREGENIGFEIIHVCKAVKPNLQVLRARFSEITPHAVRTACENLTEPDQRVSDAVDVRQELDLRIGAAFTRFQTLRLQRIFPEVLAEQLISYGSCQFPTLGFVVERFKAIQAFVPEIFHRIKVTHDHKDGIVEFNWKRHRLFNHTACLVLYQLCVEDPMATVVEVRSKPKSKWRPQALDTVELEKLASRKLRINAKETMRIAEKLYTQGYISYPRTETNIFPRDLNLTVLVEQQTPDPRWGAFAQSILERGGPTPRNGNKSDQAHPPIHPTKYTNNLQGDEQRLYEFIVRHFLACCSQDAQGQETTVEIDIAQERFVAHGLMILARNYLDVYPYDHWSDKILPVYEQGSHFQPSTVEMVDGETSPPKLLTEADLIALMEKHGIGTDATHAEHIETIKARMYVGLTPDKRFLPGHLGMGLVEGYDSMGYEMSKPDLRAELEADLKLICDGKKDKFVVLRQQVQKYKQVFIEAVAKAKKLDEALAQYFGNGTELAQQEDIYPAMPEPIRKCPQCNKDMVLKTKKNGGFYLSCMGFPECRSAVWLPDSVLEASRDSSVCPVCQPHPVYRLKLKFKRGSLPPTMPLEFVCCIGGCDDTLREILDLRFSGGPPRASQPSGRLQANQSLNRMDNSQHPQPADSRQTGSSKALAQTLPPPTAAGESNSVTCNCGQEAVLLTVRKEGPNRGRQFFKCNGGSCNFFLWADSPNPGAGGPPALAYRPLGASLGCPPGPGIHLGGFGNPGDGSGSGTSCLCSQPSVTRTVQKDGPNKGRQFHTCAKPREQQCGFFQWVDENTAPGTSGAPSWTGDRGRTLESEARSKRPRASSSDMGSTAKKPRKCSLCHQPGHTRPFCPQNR
Sequence of TOPOIIIalpha (TRR complex);RMI1 (TRR complex);RMI2 (TRR complex) (Q9H9A7 whole entry, chain 2 of 3): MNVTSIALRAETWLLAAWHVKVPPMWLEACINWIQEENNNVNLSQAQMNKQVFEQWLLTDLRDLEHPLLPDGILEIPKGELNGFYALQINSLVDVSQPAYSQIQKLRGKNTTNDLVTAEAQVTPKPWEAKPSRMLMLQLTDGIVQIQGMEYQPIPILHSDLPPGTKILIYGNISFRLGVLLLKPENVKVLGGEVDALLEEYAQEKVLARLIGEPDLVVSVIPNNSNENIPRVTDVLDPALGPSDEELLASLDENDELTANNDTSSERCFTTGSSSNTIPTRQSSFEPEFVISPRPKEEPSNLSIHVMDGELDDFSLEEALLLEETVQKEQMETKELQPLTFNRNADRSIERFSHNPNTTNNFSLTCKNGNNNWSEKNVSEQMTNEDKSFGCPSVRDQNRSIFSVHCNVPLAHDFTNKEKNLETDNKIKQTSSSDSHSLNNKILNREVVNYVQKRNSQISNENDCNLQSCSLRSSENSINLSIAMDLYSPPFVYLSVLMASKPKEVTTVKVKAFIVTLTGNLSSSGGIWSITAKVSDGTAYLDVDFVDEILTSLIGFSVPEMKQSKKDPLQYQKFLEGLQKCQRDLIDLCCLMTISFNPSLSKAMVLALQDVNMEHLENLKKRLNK
Sequence of TOPOIIIalpha (TRR complex);RMI1 (TRR complex);RMI2 (TRR complex) (Q96E14 whole entry, chain 3 of 3): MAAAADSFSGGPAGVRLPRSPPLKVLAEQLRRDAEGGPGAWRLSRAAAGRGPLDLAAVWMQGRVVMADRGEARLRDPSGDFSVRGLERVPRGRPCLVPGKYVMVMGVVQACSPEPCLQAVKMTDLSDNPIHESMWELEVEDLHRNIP

B1: ss54-FLU (ssDNA)
DNA: TCCTTTTGATAAGAGGTCATTTTTGCGGATGGCTTAGAGCTTAATTGCGCAACG
BLM-dH [1]
  Kd: 61 ± 16 nM
BLMFL [2]
  Kd: 61 ± 10 nM
BLMCR [3]
  Kd: 74 ± 14 nM
BLM-dWH [4]
  Kd: 520 ± 30 nM

B2: DL3 (Cy3) (structured_DNA)
DNA 1: GACGCTGCCGAATTCTACCAGTGCCTTGCTAGGACATCTTTGCCCACCTGCAGGTTCACCC
DNA 2: GGGTGAACCTGCAGGTGGGCGGCTGCTCATCGTAGGTTAGTTGGTAGAATTCGGCAGCGTC
DNA 3: TAAGAGCAAGATGTTCTATAAAAGATGTCCTAGCAAGGCAC
BLM-dH [5]; [10]
  Kd: < 1 nM
BLMFL [6]; [10]
  Kd: 1.2 ± 0.8 nM
BLMCR [7]; [10]
  Kd: < 1 nM
BLM-dWH [8]; [10]
  Kd: 56 ± 7 nM

B3: DL4 (Cy3) (structured_DNA)
DNA 1: B2 DNA 1
DNA 2: B2 DNA 2
DNA 3: B2 DNA 3
DNA 4: TATAGAACATCTTGCTCTTA
BLM-dH [5]; [11]
  Kd: < 1 nM
BLMFL [6]; [11]
  Kd: 2.3 ± 1.3 nM
BLMCR [7]; [11]
  Kd: < 1 nM
BLM-dWH [8]; [11]
  Kd: 56 ± 13 nM

B4: DL3 (fluorescein) (structured_DNA)
DNA 1: B2 DNA 1
DNA 2: B2 DNA 2
DNA 3: B2 DNA 3
[9]; three-stranded D-loop-like structure (D1+D2+D3)
  Kd: 13 ± 1 nM

B5: 3T (Cy3) (dsDNA)
DNA 1: B2 DNA 3
DNA 2: TATAGAACATCTTGCTCTTA
BLM-dH [5]; [12]
  Kd: 39 ± 3 nM
BLMFL [6]; [12]
  Kd: 10 ± 3 nM
BLMCR [7]; [12]
  Kd: 24 ± 2 nM
BLM-dWH [8]; [12]
  Kd: 430 ± 70 nM

B6: DL4 (fluorescein) (structured_DNA)
DNA 1: B2 DNA 1
DNA 2: B2 DNA 2
DNA 3: B2 DNA 3
DNA 4: TATAGAACATCTTGCTCTTA
[9]; four-stranded D-loop-like structure (D1+D2+D3+D4)
  Kd: 488 ± 70 nM
